Numbered stars: 1 amine (or outer) side, 2 acyl side, 3 side chain; on linkers, the order of the positions; unused ones are H or OH. Bridge positions count the residues as written; N and C are the ends. Square brackets hold non-standard residues; d marks the D form. Ends that are not written are not given here. Peptide text beside a SMILES is read from it. * marks the point of attachment. PR3 = (R)-N-(acetyl)-2-(2'-propenyl)proline, C=CC[C@@]1(C(=O)*)CCCN1C(C)=O; S3 = α-methyl,α-allylglycine, C=CC[C@](C)(N[*:1])C(=O)[*:2]; X1 = O=C([C@]1(CCCC=[*:3])CCCN1[*:1])[*:2]; X2 = O=C([C@]1(CC=[*:3])CCCN1[*:1])[*:2]; X3 = C[C@@](CC=[*:3])(N[*:1])C(=O)[*:2]; S8 = C=CCCCCCC[C@](C)(N)C(=O)O; R5 = C=CCCC[C@@](C)(N)C(=O)O; S5 = C=CCCC[C@](C)(N)C(=O)O
assay: circular dichroism; conditions: 50 mM sodium phosphate (stated for FIG. 5; assumed for the rest); pH 8.0; 20 °C

Compared with `CC(=O)N1CCC[C@]12C/C=C\CCC[C@@](C)(C(=O)N[C@@H](CCCCN)C(=O)N[C@@H](CCCNC(=N)N)C(=O)N[C@@H](C)C(=O)N[C@@H](CCCNC(=N)N)C(=O)N[C@@H](CC(N)=O)C(=O)N[C@H](C(=O)N[C@@H](CCC(=O)O)C(=O)N[C@@H](C)C(=O)N[C@@H](C)C(=O)N[C@@H](Cc1c[nH]c3ccccc13)C(N)=O)[C@@H](C)O)NC(=O)[C@H](C)NC(=O)[C@H](C)NC2=O` (Ac-[X2]AA[S5]KRARNTEAAW-NH2; staple (Z) 1-4), `CC(=O)N1CCC[C@]12C/C=C\C[C@@](C)(C(=O)N[C@@H](CCCCN)C(=O)N[C@@H](CCCNC(=N)N)C(=O)N[C@@H](C)C(=O)N[C@@H](CCCNC(=N)N)C(=O)N[C@@H](CC(N)=O)C(=O)N[C@H](C(=O)N[C@@H](CCC(=O)O)C(=O)N[C@@H](C)C(=O)N[C@@H](C)C(=O)N[C@@H](Cc1c[nH]c3ccccc13)C(N)=O)[C@@H](C)O)NC(=O)[C@H](C)NC(=O)[C@H](C)NC2=O` (Ac-[X2]AA[X3]KRARNTEAAW-NH2; staple (Z) 1-4) is higher in helicity: 44% for the first, 66% for the second.

same assay, conditions: 50 mM sodium phosphate (stated for FIG. 5; assumed for the rest); pH 8.0; ns °C

Going from `CC(=O)N1CCC[C@]12CC=CCCCC1(CCCC=CCCCCCC[C@@](C)(C(=O)N[C@@H](C)C(=O)N[C@@H](C)C(=O)N[C@@H](Cc3c[nH]c4ccccc34)C(N)=O)NC(=O)[C@H]([C@@H](C)O)NC(=O)[C@H](CC(N)=O)NC(=O)[C@H](CCCNC(=N)N)NC(=O)[C@H](C)NC(=O)[C@H](CCCNC(=N)N)NC(=O)[C@H](CCCCN)NC1=O)NC(=O)[C@H](C)NC(=O)[C@H](C)NC2=O` (stereo partly drawn) to `CC(=O)N1CCC[C@]12CC=CCCCC1(CCCC=CCCC[C@](C)(C(=O)N[C@@H](CC(N)=O)C(=O)N[C@H](C(=O)N[C@@H](CCC(=O)O)C(=O)N[C@@H](C)C(=O)N[C@@H](C)C(=O)N[C@@H](Cc3c[nH]c4ccccc34)C(N)=O)[C@@H](C)O)NC(=O)[C@H](C)NC(=O)[C@H](CCCNC(=N)N)NC(=O)[C@H](CCCCN)NC1=O)NC(=O)[C@H](C)NC(=O)[C@H](C)NC2=O` (stereo partly drawn), the helicity falls from 81% to 47%.

Compared with `CC(=O)N1CCC[C@]12CC=CC[C@@](C)(C(=O)N[C@@H](CCCCN)C(=O)N[C@@H](CCCNC(=N)N)C(=O)N[C@@H](C)C(=O)N[C@@H](CCCNC(=N)N)C(=O)N[C@@H](CC(N)=O)C(=O)N[C@H](C(=O)N[C@@H](CCC(=O)O)C(=O)N[C@]1(C)CC=CCCNC(=O)[C@H](Cc3c[nH]c4ccccc34)NC(=O)[C@H](C)NC1=O)[C@@H](C)O)NC(=O)[C@H](C)NC(=O)[C@H](C)NC2=O`, `CC(=O)N1CCC[C@]12CC=CC[C@@](C)(C(=O)N[C@@H](CCCCN)C(=O)N[C@@H](CCCNC(=N)N)C(=O)N[C@@H](C)C(=O)N[C@@H](CCCNC(=N)N)C(=O)N[C@@H](CC(N)=O)C(=O)N[C@H](C(=O)N[C@@H](CCC(=O)O)C(=O)N[C@]1(C)CCC=CCCNC(=O)[C@H](Cc3c[nH]c4ccccc34)NC(=O)[C@H](C)NC1=O)[C@@H](C)O)NC(=O)[C@H](C)NC(=O)[C@H](C)NC2=O` is higher in helicity: 64% for the first, 80% for the second.

Compared with `CC(=O)N1CCC[C@]12CC=CC[C@@](C)(C(=O)N[C@@H](CCCCN)C(=O)N[C@@H](CCCNC(=N)N)C(=O)N[C@@H](C)C(=O)N[C@@H](CCCNC(=N)N)C(=O)N[C@@H](CC(N)=O)C(=O)N[C@H](C(=O)N[C@@H](CCC(=O)O)C(=O)N[C@]1(C)CC=CCNC(=O)[C@H](Cc3c[nH]c4ccccc34)NC(=O)[C@H](C)NC1=O)[C@@H](C)O)NC(=O)[C@H](C)NC(=O)[C@H](C)NC2=O`, `CC(=O)N1CCC[C@]12CC=CC[C@@](C)(C(=O)N[C@@H](CCCCN)C(=O)N[C@@H](CCCNC(=N)N)C(=O)N[C@@H](C)C(=O)N[C@@H](CCCNC(=N)N)C(=O)N[C@@H](CC(N)=O)C(=O)N[C@H](C(=O)N[C@@H](CCC(=O)O)C(=O)N[C@]1(C)CCC=CCNC(=O)[C@H](Cc3c[nH]c4ccccc34)NC(=O)[C@H](C)NC1=O)[C@@H](C)O)NC(=O)[C@H](C)NC(=O)[C@H](C)NC2=O` is higher in helicity: 64% for the first, 69% for the second.

Going from `CC(=O)N1CCC[C@]12CC=CC[C@@](C)(C(=O)N[C@@H](CCCCN)C(=O)N[C@@H](CCCNC(=N)N)C(=O)N[C@@H](C)C(=O)N[C@@H](CCCNC(=N)N)C(=O)N[C@@H](CC(N)=O)C(=O)N[C@H](C(=O)N[C@@H](CCC(=O)O)C(=O)N[C@]1(C)CCCC=CCNC(=O)[C@H](Cc3c[nH]c4ccccc34)NC(=O)[C@H](C)NC1=O)[C@@H](C)O)NC(=O)[C@H](C)NC(=O)[C@H](C)NC2=O` to `CC(=O)N1CCC[C@]12CCCC=CCCCCCC[C@@](C)(C(=O)N[C@@H](CC(N)=O)C(=O)N[C@H](C(=O)N[C@@H](CCC(=O)O)C(=O)N[C@@H](C)C(=O)N[C@@H](C)C(=O)N[C@@H](Cc1c[nH]c3ccccc13)C(N)=O)[C@@H](C)O)NC(=O)[C@H](C)NC(=O)[C@H](CCCNC(=N)N)NC(=O)[C@H](CCCCN)NC(=O)[C@H](CC(C)C)NC(=O)[C@H](C)NC(=O)[C@H](C)NC2=O` (Ac-[X1]AALKRA[S8]NTEAAW-NH2; staple 1-8), the helicity falls from 73% to 61%.

Going from `CC(=O)N[C@]1(C)CCCC=CCCCCCC[C@@](C)(C(=O)N[C@@H](CC(N)=O)C(=O)N[C@H](C(=O)N[C@@H](CCC(=O)O)C(=O)N[C@@H](C)C(=O)N[C@@H](C)C(=O)N[C@@H](Cc2c[nH]c3ccccc23)C(N)=O)[C@@H](C)O)NC(=O)[C@H](C)NC(=O)[C@H](CCCNC(=N)N)NC(=O)[C@H](CCCCN)NC(=O)[C@H](CC(C)C)NC(=O)[C@H](C)NC(=O)[C@H](C)NC1=O` (Ac-[R5]AALKRA[S8]NTEAAW-NH2; staple 1-8) to `CC(=O)N1CCC[C@]12CC=CC[C@@](C)(C(=O)N[C@@H](C)C(=O)N[C@@H](C)C(=O)N[C@@H](C)C(=O)N[C@@H](Cc1c[nH]c3ccccc13)C(N)=O)NC(=O)[C@H](C)NC(=O)[C@H](C)NC2=O` (Ac-[X2]AA[X3]AAAW-NH2; staple 1-4), the helicity rises from 48% to 70%.

assay: Variable temperature CD measurement of α-helix stability; type: physicochemical; conditions: 20° C. to 90° C.; 50 mM sodium phosphate buffer (pH 8.0), alone and with 100 mM NaCl, 1 M NaCl, and 10% TFE
From the text: These observations indicate that the proline stapled peptides adopt an α-helix conformation with extraordinary stability.

For “peptide 2: Pro-locked peptide with partial basic region of GCN4, crosslink between PR3 and S3; Peptide "4)" of FIG. 17 (SEQ ID NO:2) ([PR3]AA[S3]KRARNTEAAW; staple 1-4; also: olefin Z-isomer)”, the “α-helix conformation on heating” value was “completely maintained”.

assay: CD measurements of peptide conformation and % helicity; type: physicochemical; conditions: 20° C.
From the text: The conformation of peptide 1 and 2 was investigated by CD measurements (FIG. 4).
(Peptide 1 of FIG. 2 corresponds to Peptide “1)” of FIG. 17, while Peptide 2 of FIG. 2 corresponds to Peptide “4)” of FIG. 17).

In the case of “peptide 2: Pro-locked peptide with partial basic region of GCN4, crosslink between PR3 and S3; Peptide "4)" of FIG. 17 (SEQ ID NO:2) ([PR3]AA[S3]KRARNTEAAW; staple 1-4; also: olefin Z-isomer)”, the “% helicity” value is reported as 67%.

For “peptide 2: Pro-locked peptide with partial basic region of GCN4, crosslink between PR3 and S3; Peptide "4)" of FIG. 17 (SEQ ID NO:2) ([PR3]AA[S3]KRARNTEAAW; staple 1-4; also: olefin Z-isomer)”, the “conformation by CD” value was “(X-helix”.
